IntAct's records for PubMed 18583988

B1: Nibrin (Homo sapiens), O60934 (parent)
chain: MWKLLPAAGPAGGEPYRLLTGVEYVVGRKNCAILIENDQSISRNHAVLTANFSVTNLSQTDEIPVLTLKDNSKYGTFVNEEKMQNGFSRTLKSGDGITFGVFGSKFRIEYEPLVACSSCLDVSGKTALNQAILQLGGFTVNNWTEECTHLVMVSVKVTIKTICALICGRPIVKPEYFTEFLKAVESKKQPPQIESFYPPLDEPSIGSKNVDLSGRQERKQIFKGKTFIFLNAKQHKKLSSAVVFGGGEARLITEENEEEHNFFLAPGTCVVDTGITNSQTLIPDCQKKWIQSIMDMLQRQGLRPIPEAEIGLAVIFMTTKNYCDPQGHPSTGLKTTTPGPSLSQGVSVDEKLMPSAPVNTTTYVADTESEQADTWDLSERPKEIKVSKMEQKFRMLSQDAPTVKESCKTSSNNNSMVSNTLAKMRIPNYQLSPTKLPSINKSKDRASQQQQTNSIRNYFQPSTKKRERDEENQEMSSCKSARIETSCSLLEQTQPATPSLWKNKEQHLSENEPVDTNSDNNLFTDTDLKSIVKNSASKSHAAEKLRSNKKREMDDVAIEDEVLEQLFKDTKPELEIDVKVQKQEEDVNVRKRPRMDIETNDTFSDEAVPESSKISQENEIGKKRELKEDSLWSAKEISNNDKLQDDSEMLPKKLLLTEFRSLVIKNSTSRNPSGINDDYGQLKNFKKFKKVTYPGAGKLPHIIGGSDLIAHHARKNTELEEWLRQEMEVQNQHAKEESLADDLFRYNPYLKRRR

Variants of: B1
Settings: with mdc1_human MDC1, Q14676
mdc1_human MDC1, Q14676, sequence (Q14676 whole entry): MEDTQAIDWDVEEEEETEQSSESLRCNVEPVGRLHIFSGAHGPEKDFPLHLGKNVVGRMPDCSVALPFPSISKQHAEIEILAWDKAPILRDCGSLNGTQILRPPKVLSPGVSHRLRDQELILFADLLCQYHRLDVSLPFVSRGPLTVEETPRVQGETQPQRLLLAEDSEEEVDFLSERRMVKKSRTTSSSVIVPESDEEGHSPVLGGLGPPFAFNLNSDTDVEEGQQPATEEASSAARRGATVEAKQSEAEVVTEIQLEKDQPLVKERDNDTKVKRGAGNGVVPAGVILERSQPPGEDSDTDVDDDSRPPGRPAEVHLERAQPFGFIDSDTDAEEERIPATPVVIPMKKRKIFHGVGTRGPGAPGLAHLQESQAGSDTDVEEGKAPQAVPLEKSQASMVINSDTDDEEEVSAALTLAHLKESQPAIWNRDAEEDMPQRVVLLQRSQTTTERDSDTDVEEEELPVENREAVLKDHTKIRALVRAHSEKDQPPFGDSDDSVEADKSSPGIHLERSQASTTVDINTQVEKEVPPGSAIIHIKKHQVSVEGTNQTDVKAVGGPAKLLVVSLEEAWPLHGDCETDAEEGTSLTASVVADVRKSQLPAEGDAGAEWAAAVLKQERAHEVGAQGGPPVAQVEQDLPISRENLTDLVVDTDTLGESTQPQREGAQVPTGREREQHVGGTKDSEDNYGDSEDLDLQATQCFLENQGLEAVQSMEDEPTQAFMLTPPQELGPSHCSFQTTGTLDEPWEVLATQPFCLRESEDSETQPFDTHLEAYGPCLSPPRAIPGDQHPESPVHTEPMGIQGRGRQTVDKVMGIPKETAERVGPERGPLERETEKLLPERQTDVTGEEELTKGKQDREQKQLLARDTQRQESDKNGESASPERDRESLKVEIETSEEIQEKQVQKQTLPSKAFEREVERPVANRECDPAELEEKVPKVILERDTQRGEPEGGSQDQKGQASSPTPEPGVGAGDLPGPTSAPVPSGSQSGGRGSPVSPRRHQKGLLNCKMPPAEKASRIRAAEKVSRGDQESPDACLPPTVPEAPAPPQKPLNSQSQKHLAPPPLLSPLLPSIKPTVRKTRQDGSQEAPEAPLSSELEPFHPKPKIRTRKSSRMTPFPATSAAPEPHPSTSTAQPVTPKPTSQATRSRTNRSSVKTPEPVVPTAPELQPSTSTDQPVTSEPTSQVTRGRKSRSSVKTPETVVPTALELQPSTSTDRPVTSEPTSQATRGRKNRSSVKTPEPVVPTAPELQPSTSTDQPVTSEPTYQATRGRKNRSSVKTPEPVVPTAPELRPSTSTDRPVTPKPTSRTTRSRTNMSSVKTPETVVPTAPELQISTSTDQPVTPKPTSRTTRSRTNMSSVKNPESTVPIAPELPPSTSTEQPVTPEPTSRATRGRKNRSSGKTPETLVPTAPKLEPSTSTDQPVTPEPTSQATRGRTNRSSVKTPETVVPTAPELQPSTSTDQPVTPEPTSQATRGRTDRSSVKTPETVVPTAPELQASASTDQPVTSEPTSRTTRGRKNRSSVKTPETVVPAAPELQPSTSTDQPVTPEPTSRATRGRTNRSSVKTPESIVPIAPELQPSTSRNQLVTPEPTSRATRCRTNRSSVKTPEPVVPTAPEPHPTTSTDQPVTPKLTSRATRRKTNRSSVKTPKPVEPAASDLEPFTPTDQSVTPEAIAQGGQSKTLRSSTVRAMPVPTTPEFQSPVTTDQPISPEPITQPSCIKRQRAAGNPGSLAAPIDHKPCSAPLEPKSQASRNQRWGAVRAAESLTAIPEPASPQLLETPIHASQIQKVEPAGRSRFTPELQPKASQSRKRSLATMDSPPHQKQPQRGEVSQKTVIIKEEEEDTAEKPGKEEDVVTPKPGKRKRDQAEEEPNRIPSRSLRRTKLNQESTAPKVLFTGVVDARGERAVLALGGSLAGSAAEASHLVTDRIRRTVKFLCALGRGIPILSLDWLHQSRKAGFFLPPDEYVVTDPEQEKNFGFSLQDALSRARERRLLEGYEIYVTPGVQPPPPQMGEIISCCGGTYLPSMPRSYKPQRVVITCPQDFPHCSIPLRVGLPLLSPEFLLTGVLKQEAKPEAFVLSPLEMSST
In the case of H45A, the “effect of a mutation on the interaction” value is reported as “disrupting interaction”.

Variants of: B1
Settings: with mdc1_human MDC1, Q14676
Remark: another data set of the same source
In the case of R28A, the “effect of a mutation on the interaction” value is reported as “disrupting interaction”.

Variants of: B1
Settings: with mdc1_human MDC1, Q14676
Remark: another data set of the same source
With K160M the “effect of a mutation on the interaction” value was “disrupting interaction”.
